The data set deals with the molecule itself. Briefly: AUC.

B1: mouse Kirrel2 ectodomain, wild type (domain or fragment, UniProt Q7TSU7 20-507, looked up)
chain: SPHFLQQPEDMVVLLGEEARLPCALGAYRGLVQWTKDGLALGGERDLPGWSRYWISGNSASGQHDLHIKPVELEDEASYECQASQAGLRSRPAQLHVMVPPEAPQVLGGPSVSLVAGVPGNLTCRSRGDSRPAPELLWFRDGIRLDGSSFHQTTLKDKATGTVENTLFLTPSSHDDGATLICRARSQALPTGRDTAVTLSLQYPPMVTLSAEPQTVQEGEKVTFLCQATAQPPVTGYRWAKGGSPVLGARGPRLEVVADATFLTEPVSCEVSNAVGSANRSTALEVLYGPILQAKPKSVSVDVGKDASFSCVWRGNPLPRITWTRMGGSQVLSSGPTLRLPSVALEDAGDYVCRAEPRRTGLGGGKAQARLTVNAPPVVTALQPAPAFLRGPARLQCVVFASPAPDSVVWSWDEGFLEAGSLGRFLVEAFPAPEVEGGQGPGLISVLHISGTQESDFTTGFNCSARNRLGEGRVQIHLGRRDLLPTVR
Regarding B1, the equilibrium dissociation constant (Kd) (commonly the equilibrium constant for the complex coming apart) is 900 nM and the stoichiometry N – broadly, the number of molecules, sites or subunits per partner or assembly – was 2.

B2: mouse Kirrel3 ectodomain, wild type (domain or fragment, UniProt Q8BR86 22-535, looked up)
chain: LQKRGCCLVLGYMAKDKFRRMNEGQVYSFSQQPQDQVVVSGQPVTLLCAIPEYDGFVLWIKDGLALGVGRDLSSYPQYLVVGNHLSGEHHLKILRAELQDDAVYECQAIQAAIRSRPARLTVLVPPDDPIILGGPVISLRAGDPLNLTCHADNAKPAASIIWLRKGEVINGATYSKTLLRDGKRESIVSTLFISPGDVENGQSIVCRATNKAIPGGKETSVTIDIQHPPLVNLSVEPQPVLEDNIVTFHCSAKANPAVTQYRWAKRGHIIKEASGELYRTTVDYTYFSEPVSCEVTNALGSTNLSRTVDVYFGPRMTSEPQSLLVDLGSDAVFSCAWIGNPSLTIVWMKRGSGVVLSNEKTLTLKSVRQEDAGKYVCRAVVPRVGAGEREVTLTVNGPPIISSTQTQHALHGEKGQIKCFIRSTPPPDRIAWSWKENVLESGTSGRYTVETVNTEEGVISTLTISNIVRADFQTIYNCTAWNSFGSDTEIIRLKEQGSEMKSGAGLEAESVPMA
For B2, binding was put at a Kd of 210 nM and the “stoichiometry N” value came out at 2.
